Data taken from US20260028391A1 (HUMABS BIOMED, published 2026).
Positions count from the first letter of the chain named.

B1: MPK92 (antibody, V domains shown)
VH: EVQLVESGGGLVKPGGSLRLSCEASGISLSGYYMIWIRQAPGKGLEWISSISSSSNYIDYADSVRGRFTISRHNGQNTLYLQMNSLRVEDTAVYFCATEQTPSPGPFELWGQGILVTVSS
VL: QSVLTQPPSVSGAPGQRVTIFCTGTTSNIGTGYDVHWYQQFPGTSPKLLIYRNTNRPSGVPDRFSGSRSGSSASLAIAGLQAEDEADYYCQSFDRSVNGWIFGGGTKVTVL
notes: VH and VL only
B2: MPK86 (antibody, V domains shown)
VH: EVQLVESGGGLVKPGGSLRLSCAASGFSISGYYMIWIRQAPGRGLEWISDISASSTYTDYADSVKGRFTISRDNGQNTVYLQMNNLRADDTALYYCATEQTPSPGPFDLWGQGTLVTVSS
VL: QSVVTQPPSVSGAPGQRVIISCSGRSSNIGAGYDVHWYQHFPGTSPKLLIYRNTNRPSGVPDRFSASTSATSASLAITGLQADDEADYYCQSYDRNLGGWVFGGGTKLTVL
notes: VH and VL only
B3: MPK126 (antibody, V domains shown)
VH: B2 VH with L18M, F27V, S28T, I29L, R43K, I70V, G75S, N85S, D89E, L93V
VL: QSVLTQPPSVSGAPGQRVTISCTGSSSNVGAGYDVHWYQQFPGTSPKLLIYRNTNRPSGVPDRFSGFKSGTSASLAITGLEAEDEADYYCQSYDRSLSGWVFGAGTKLTVL
notes: VH and VL only
B4: MPK102 (antibody, V domains shown)
VH: EVQLVESGGGLVKPRGSLRLSCAASGFTFSGYFMIWIRQAPGKGLEWVSYISGSSTYTNYADSVKGRFTISRDNGRNTLYLQMNSLRADDTAVYYCATEQTPSPGPFDLWGQGTLVTVSS
VL: QSVLTQPPSVSGAPGQRVTISCTGTSSNIGAGYDVHWYQQFPGTSPKLLIFRNTNRPSGVSDRFSGSKSGSSASLAIAGLQAEDESDYYCQSYDRGLDGWVFGGGTRLTVL
notes: VH and VL only
B5: MPK144 (antibody, V domains shown)
VH: EVQLVESGGGLVRPGGSLRLSCAASGFTFTGYYMMWIRQAPGKGLEWISDISSSSSYTNYADSVKGRFAISRDNAQNTLYLQMNSLRAEDTAVYYCATEQVPSPGPFDLWGQGTLVTVSS
VL: B3 VL with V29F, F67S, E81Q, S98T, A104G
notes: VH and VL only
B6: MPK9 (antibody, V domains shown)
VH: EVQLVESGGGLVKPGGSLRLSCAASGFTISGYGMSWFRQAPGKGLEWVSSISASSSYIYYADSTKGRFTISRDNGKQSLYLQMNSLRAEDTAVYYCATSPIEPPYFDLWGRGTLVTVSS
VL: QSVLTQPPSVSGAPGQRVTISCTGSSSNIGAGYDVHWYQQLPGKAPKLLIYGNNNRPSGVPDRFSGSNSGASASLAITGLQAEDEADYFCQSYDRRLSGPVFGRGTKLTVL
notes: VH and VL only
B7: MPK142-v1 (antibody, V domains shown)
VH: EVQLVESGGGLVEPGGSLRLSCAASGFTISGYGMSWVRQAPGKGLEWVSSISASSSYIYYGDAMKGRITISRDNGWNSMYLQMNSLRTEDTAVYYCATAPIEPPYFDLWGRGTLVTVSS
VL: B6 VL with L41F, L48V, S65A, G66A, D87A, R104G
notes: VH and VL only
B8: MPK73 (antibody, V domains shown)
VH: EVQLVESGGGLVKPGGSLTLSCAASGFSISGYGMNWVRQAPGRGLEWVASISASSTYIYYADSMKGRFTISRDNGKTSLYLQMKSLRAEDTAVYYCARAPIEPPYFDLWGRGTLVTVSS
VL: B6 VL with S26N, Q40H, L48V, T78S, V101I, R104G
notes: VH and VL only
B9: MPK127 (antibody, V domains shown)
VH: QVQLVISGGGLVKPGGSLRLSCAASGFRIDSFSLNWVRQAPGKGLEWLASVSASSSYIDYRDSVAGRFTISRDNAQNSLYLQMDTLRAEDTAVYYCARTNGYETGSFDVWGQGTLVTVAS
VL: B6 VL with Y51N, G52A, A71T, F89Y, R95K, R96T, P100Y, R104L, K107T, L108V
notes: VH and VL only
B10: MPK136 (antibody, V domains shown)
VH: EVQLVESGGGLVKPGGSLRLSCEASGFSLSGYYMIWIRQAPGKGLEWISSISGSGNYINYADSVKGRFTVSRDNGHNTLYLQMNSLRVEDTAVYYCATEQTPSPGPFDHWGQGTLVTVSS
VL: QVQLVQPPSVSGAPGQRVSISCTGTSSNIGTGYDVHWYQQFPGTSPKLLIYRNTNRPSGVPDRFSGSKSGSSASLAIAGLQAEDEADYYCQSYDRSVSGWVFGGGTKLTVL
notes: VH and VL only
B11: MPK18 (antibody, V domains shown)
VH: EVQLVESGGGLVKPGGSLRLSCAASGFTISGYYMIWIRQAPGKGLEWISYISGSSSYTNFGASVKGRFTISRDNGQNTVHLQMTNLRADDTALYYCATEQTPSPGPFDLWGQGTLVTVSS
VL: QSVVTQPPSVSGAPGQRVTISCSGTSSNIGAGYDVHWYQQFPGTSPKLLISRNFNRPSGVPARFSGSKSGSSASLAIAGLQAEDEADYYCQSYDRSLGGWVFGGGTKVTVL
notes: VH and VL only
B12: MPK129 (antibody, V domains shown)
VH: B10 VH with N59D, V70I
VL: B10 VL with V2T, Q3V, L4V, V5T, S19T
notes: VH and VL only
B13: MPK132-v1 (antibody, V domains shown)
VH: B1 VH with R65K
VL: B10 VL with V2S, Q3V, L4V, V5T, S19T, S21F
notes: VH and VL only
B14: MPK99 (antibody, V domains shown)
VH: B2 VH with S28T, A40S, R43K, T56S, N85S, D89E, L93V, T101V
VL: B11 VL with Q16L, A31R, T44Q, S51Y, F54T, A62D, S67F, K107R, V108L, T109I
notes: VH and VL only
B15: MPK30-v1 (antibody, V domains shown)
VH: EVQLVESGGGLVKPGGSLRLSCAASGFTISGYYMIWIRQAPGKGLEWISFISASSSYINYADSVRGRFTISRDNGRSTVYLQMNSLRPEDTAVYYCATEQVPSPGPFDLWGQGTLVTVSS
VL: B4 VL with T44R, F51Y, S61P, S86A, G96S, R107T
notes: VH and VL only
B16: MPK67 (antibody, V domains shown)
VH: B11 VH with F60Y
VL: B11 VL with V4L, A82P
notes: VH and VL only
B17: MPK36-v3 (antibody, V domains shown)
VH: EVQLVESGGGLVKPGGSLRLSCAASFTISGYYMIWIRQAPGKGLEWISYISGSSTYTNYADSVKGRFTISRDNGQNTLYLHMTSLRADDTALYYCATEQTPSPGPFDLWGQGTLVTVSS
VL: B11 VL with S2T, S51Y, A62D, R95K, G98D
notes: VH and VL only
B18: MPK142-v2 (antibody, V domains shown)
VH: B7 VH
VL: DIQLTQTPTSLSASVGDRVTFTCRASQNIGFYLNWYQQKPGKAPRLLIYGASNLQSGVPSRFSGSGAGTDFSLTISSLQPEDFATYYCQQSFNTPRTFGQGTKVEIN
notes: VH and VL only
B19: MPK141 (antibody, V domains shown)
VH: EVQLVESGGGLVKPGGSLRLSCAASGFTISGYYMTWIRQAPGKGLEWISYISGSSSYTNYADSVKGRFTISRDNGRNSVYLQMNSLRADDTGVYYCAREETPSPGPFDSWGQGILVTVSS
VL: QSVLTQPPSVSGAPGQRIIISCIGSSSNIGTGYDVHWYQQLPGRAPKLLISRNTNRPSGIPDRFSGSKSGTSASLAITGLQADDEADYYCQSYDRGLDGWVFGGGTKLTVL
notes: VH and VL only
B20: MPK130 (antibody, V domains shown)
VH: EVQLVESGGGLVKPGGSLTLSCEASGFSISGYYMIWVRQAPGKGLEWVSSISASDTYIDYAVSVQGRFTISRHNTKNSLYLQMSSLRVEDTGVYYCTREKVPSPGPFDCWGQGTLVTVSS
VL: QSVLTQPPSVSGAPGQRITISCTGTSSNIGAGYDVHWYQHLPGAAPRLLIYVNTNRPSGVPDRFSGARSGTSASLAITGLQAEDEADYYCQSYDRSLGGWAFGEGTKVTVL
notes: VH and VL only
B21: MPK108 (antibody, V domains shown)
VH: EVQLVESGGGLVRPGQSLRLSCTASGFSISGYFMIWVRQAPGKGLEWISYVSASSTYTNYADSVRGRFTTSRDNGQNSLFLQMDSLTAEDTGVYFCAREQTPSPGPFDSWGQGVLVTVSS
VL: QSVLTQPPSLSGAPGQRITISCTGTSSNIGAGYDVHWYQYLPGTAPKLVIYRNTNRPSGVSGRFSGSKSGTSASLAITGLQTEDEADYYCQSYDKKLDGWVFGGGTKLTVL
notes: VH and VL only
B22: MPK10 (antibody, V domains shown)
VH: EVQLVQSGGGLVKPGGSLRLSCAASGFRFSGYFMIWIRQAPGKGLEWISFISGGSSYTNYADSVKGRFTISRDNVQNTLFLDMNSLRAEDTGVYFCATEQVPTPGPFDLWGQGSLVTVSS
VL: QSVLTQPPSVSGVPGQRVIISCTGSSSNIGAGYDVHWYQQFPGRSPTLLIYRNTNRPSGVPDRFSGFQSGSSASLAITGLQAEDEADYYCQSFDRTLDGWAFGGGTKVTVL
notes: VH and VL only
B23: MPK133 (antibody, V domains shown)
VH: QVQLVQSGGGLVKPGGSLRLSCAASEFSFSGYFMIWIRQAPGKGLEWISYISGSSTYTNYADSVKGRFTISRDNAQNTLYLEMNSLRAEDTGVYYCATEQVPSPGPFDLWGQGTLVTVSS
VL: B22 VL with V13A, I19T, F67S, F93Y, D98S
notes: VH and VL only

These binders were tested against RSV fusion glycoprotein (RSV-F) (respiratory syncytial virus) (assay: SPR; F protein loaded on streptavidin sensors, mAb in solution).
Method: Binding affinity of mAbs for RSV-F protein, MPV-F D280 protein, and MPV-F N280 F variant protein was assessed using surface plasmon resonance (SPR).
B1 showed a Kd of 0.098 nM.
Work on B2 yielded a Kd of 0.001 nM.
In the case of B3, the Kd is reported as 0.001 nM.
B4 was tested, and the Kd was 0.096 nM.
With B5 the Kd was 0.001 nM.
In the case of B6, the Kd is reported as 0.04 nM.
In the case of B7, the Kd is reported as 100 nM.
B8 showed a Kd of 0.012 nM.
B9 showed a Kd of 1.7 nM.
B10 showed a Kd of 0.001 nM.
Work on B11 yielded a Kd of 0.001 nM.
For B12, the Kd was 0.083 nM.
B13 was tested, and the Kd was 0.47 nM.
With B14 the Kd was 0.15 nM.
In the case of B15, the Kd is reported as 0.01 nM.
B16 showed a Kd of 0.0059 nM.
Binder B17 has a Kd of 0.0056 nM.
With B18 the Kd was 16 nM.
B19 was tested, and the Kd was 0.13 nM.
B20 gave a Kd of 0.016 nM.
B21 gave a Kd of 0.58 nM.
With B22 the Kd was 0.012 nM.
B23 showed a Kd of 0.001 nM.
